# Measurements published in patent publication US20100196385A1 (AstraZeneca / MedImmune, published 2010).
# T1: human Dll1 (human, UniProt O00548 18-723)
# T1 construct: whole, on cells
# T1 sequence (looked up): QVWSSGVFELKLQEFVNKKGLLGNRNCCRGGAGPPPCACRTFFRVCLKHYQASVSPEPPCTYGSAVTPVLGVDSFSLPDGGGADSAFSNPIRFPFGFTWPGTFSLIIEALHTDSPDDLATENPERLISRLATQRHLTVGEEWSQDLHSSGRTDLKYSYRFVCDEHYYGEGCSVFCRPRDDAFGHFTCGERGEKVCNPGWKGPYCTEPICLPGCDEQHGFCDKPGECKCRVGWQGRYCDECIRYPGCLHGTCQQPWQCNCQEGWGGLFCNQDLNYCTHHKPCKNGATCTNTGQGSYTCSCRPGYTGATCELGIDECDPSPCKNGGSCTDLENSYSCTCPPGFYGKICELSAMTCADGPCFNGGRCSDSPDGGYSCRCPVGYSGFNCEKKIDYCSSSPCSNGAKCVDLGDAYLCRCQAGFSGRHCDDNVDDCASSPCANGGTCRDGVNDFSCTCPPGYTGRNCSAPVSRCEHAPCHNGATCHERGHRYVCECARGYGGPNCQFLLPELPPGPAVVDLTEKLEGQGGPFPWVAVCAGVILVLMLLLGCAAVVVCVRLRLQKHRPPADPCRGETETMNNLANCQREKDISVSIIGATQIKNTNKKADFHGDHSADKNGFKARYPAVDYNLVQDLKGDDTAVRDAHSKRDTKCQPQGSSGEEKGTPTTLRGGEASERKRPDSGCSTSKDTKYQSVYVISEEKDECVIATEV
# B1: 9G8 (antibody, IgG4, V domains shown)
# VH: QLQLQESGPGLVKPSETLSLSCTVSGGSISSSSSYWGLIRQPPGKGLEWIGSIYYSGSTYYSPSLKSRVSISVDTSKNQFSLKLSSVTAADTAVYFCARQGYGGHPDVFDIWGQGTMVTVSS
# VL: SSELTQSPSVSVSPGQTARITCSGDKLGDVYVCWYQQKTGQSPVLVIYEDTKRPSGIPERFSGSNSGNTATLTISGTQVMDEADYYCQAWDSTTAVIFGGGTKLTVL
# notes: Fully human; used for IgG4 rows and where no isotype is printed; also called 9G8 IgG4
# B2: 21H3 (antibody, IgG4, V domains shown)
# VH: QVQLVQSGAEVKKPGASVKVSCKASGYTFTNYGITWVRQAPGQGPEWMGWISAYNGNTNYAQKLQDRVTVTTDTSTSTAYMELRSLRSDDTAVYYCARDRVPRIPVTTEAFDIWGQGTMVTVSS
# VL: QSVLTQPPSASGTPGQRVTISCSGSSSNIGSYFVYWYQQLPGTAPKLLIYRNNQRPSGVPDRFSGSESGTSASLAISGLRSEDEADYYCAAWDDSLSGHWVFGGGTRLTVL
# notes: Fully human; used for IgG4 rows and where no isotype is printed; also called 21H3 IgG4
# B3: 2H10 (antibody, IgG4, V domains shown)
# VH: QVQLVESGGGVVQPGRSLRLSCAASGFTFSRHGMHWVRQAPGKGLEWVAVVWFDGSNIYYADSVKGRFTISRDNSKNTLYLQMNSLRAEDTAMYYCARDSRIAAADYWGQGTLVTVSS
# VL: SYELTQPPSVSVSPGQTVSITCSGDKLGDKYVCWYQQKPGQSPVLVIYQESKRPSGIPERFSGSSSGNTATLTISGTQAMDEADYYCQTWDSSLVVFGGGTKLTVL
# notes: Fully human; used for IgG4 rows and where no isotype is printed; also called 2H10 IgG4
# B4: 4B4 (antibody, IgG4, V domains shown)
# VH: QVLLIQSGAEVKKPGASVQVSCKASGYTFTNYGVIWVRQAPGQGLEYMGWISAYNGNTNYAQKLQDRVTMTSDTSTTTAYMELRSLRSDDTAVYYCARELGSSFDYWGQGTLVTVSS
# VL: SYELTQPPSVSVSPGQTARITCSGDALPKKYAYWYQQKSGQAPVLVIYEDIKRPSGIPERFSGSSSGTMATLTISGAQVEDEADYYCFSTDNSGDHSVFGGGTKLTVL
# notes: Fully human; used for IgG4 rows and where no isotype is printed; also called 4B4 IgG4; 4B4.1
# Molecular target: T1, human Dll1
# Assay: FACS, 15 µg/ml, 293T cells with human Dll1
# Procedure, shortened: (§1)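 Flow cytometry; 1 h antibody staining at 4 °C in PBS/2% FCS. Value = geometric mean fluorescence shift over mock-transfected cells.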
row,Dll1/293T X Geo mean,Binder
1,32.3,B1
2,32.4,B2
3,44.1,B3
4,25.9,B4

# Molecular target: T2, human Jagged1 (human, UniProt P78504 34-1218)
# T2 construct: whole, on cells
# T2 sequence (P78504 34-1218): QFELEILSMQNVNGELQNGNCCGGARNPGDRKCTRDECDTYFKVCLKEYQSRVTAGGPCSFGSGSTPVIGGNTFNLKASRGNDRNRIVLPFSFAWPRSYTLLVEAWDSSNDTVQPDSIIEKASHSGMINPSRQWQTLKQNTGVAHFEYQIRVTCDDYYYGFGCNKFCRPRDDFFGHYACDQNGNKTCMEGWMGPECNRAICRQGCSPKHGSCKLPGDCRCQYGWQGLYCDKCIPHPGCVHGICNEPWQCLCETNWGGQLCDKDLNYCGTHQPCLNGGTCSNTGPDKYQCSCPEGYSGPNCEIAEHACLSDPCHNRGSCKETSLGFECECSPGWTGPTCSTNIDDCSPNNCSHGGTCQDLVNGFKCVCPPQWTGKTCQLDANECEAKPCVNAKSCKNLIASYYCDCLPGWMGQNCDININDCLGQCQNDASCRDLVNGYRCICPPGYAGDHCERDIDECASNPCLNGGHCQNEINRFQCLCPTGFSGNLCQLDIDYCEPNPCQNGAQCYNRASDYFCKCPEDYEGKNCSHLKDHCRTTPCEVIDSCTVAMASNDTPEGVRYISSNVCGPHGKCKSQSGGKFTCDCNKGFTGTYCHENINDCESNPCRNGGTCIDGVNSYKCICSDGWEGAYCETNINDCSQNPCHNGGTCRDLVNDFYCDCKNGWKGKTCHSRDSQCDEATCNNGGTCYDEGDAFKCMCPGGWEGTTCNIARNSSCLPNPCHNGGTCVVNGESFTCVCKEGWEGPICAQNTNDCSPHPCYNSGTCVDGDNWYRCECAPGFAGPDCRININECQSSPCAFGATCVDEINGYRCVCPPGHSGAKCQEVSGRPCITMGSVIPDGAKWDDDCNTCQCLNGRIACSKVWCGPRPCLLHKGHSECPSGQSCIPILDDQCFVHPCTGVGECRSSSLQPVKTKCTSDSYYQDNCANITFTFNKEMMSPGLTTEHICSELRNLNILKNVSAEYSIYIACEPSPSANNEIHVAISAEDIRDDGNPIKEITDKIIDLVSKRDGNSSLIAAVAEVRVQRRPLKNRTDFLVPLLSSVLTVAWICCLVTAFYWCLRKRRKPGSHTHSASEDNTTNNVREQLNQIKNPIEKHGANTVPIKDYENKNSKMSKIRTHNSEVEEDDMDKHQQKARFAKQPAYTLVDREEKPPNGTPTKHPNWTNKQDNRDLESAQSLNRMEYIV
# Assay: FACS, 5 µg/ml, 293T cells with human Jagged1 vs mock
# Procedure, shortened: as §1
row,Jagged1/mock ratio,Binder
1,1.07,B1
2,1.12,B2
3,1.26,B3
4,1.09,B4

# Molecular target: T3, human soluble DLL4 (R&D systems catalog #1056-D4-050) (human, UniProt Q9NR61 27-524)
# T3 construct: Catalog number as printed; perhaps the same product as #1506-D4; also called antigen DLL4
# T3 sequence (Q9NR61 27-524 limits assumed): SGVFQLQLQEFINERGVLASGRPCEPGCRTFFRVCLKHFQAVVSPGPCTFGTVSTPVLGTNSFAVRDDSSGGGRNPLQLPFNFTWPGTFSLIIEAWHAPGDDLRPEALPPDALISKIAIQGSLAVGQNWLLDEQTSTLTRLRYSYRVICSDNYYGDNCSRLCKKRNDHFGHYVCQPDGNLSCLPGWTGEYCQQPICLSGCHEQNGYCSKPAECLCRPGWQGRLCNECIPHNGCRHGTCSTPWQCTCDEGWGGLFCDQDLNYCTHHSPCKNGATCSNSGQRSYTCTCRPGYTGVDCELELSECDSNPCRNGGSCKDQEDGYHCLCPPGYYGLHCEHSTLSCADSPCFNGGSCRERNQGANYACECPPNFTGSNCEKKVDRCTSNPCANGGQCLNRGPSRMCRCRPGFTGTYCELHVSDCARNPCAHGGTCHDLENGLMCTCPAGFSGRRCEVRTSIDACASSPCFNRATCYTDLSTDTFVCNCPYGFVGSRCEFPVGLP
# Assay: Biacore T100, antibody immobilised, soluble human DLL4 as analyte
# Procedure, shortened: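 Anti-DLL4 antibodies amine-coupled to CM5 chip (<200 RU). Soluble DLL4 injected from 32-64 nM in 3-fold dilutions, in triplicate, in HBS-P with 0.1 mg/ml BSA at 23° C. ka, kd and KD from a global 1:1 fit.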
Kd [pM],koff [s⁻¹],kon [M⁻¹ s⁻¹],Binder
132,1.36e-05,103000,B1
481,0.000152,317000,B2
981,4.02e-05,40900,B3
283,3.33e-05,118000,B4

# Molecular target: T2, human Jagged1
# Assay: FACS, up to 300 µg/ml, HEK-293 cells stably overexpressing human Jagged1
row,fold over background [fold],Binder
1,< 2.5,B1
2,< 2.5,B3
3,< 2.5,B4

# Molecular target: T4, full length human DLL4 (human, UniProt Q9NR61 27-685)
# T4 construct: whole, on cells; also called native DLL4 expressed in HEK293 cells
# T4 sequence (Q9NR61 27-685): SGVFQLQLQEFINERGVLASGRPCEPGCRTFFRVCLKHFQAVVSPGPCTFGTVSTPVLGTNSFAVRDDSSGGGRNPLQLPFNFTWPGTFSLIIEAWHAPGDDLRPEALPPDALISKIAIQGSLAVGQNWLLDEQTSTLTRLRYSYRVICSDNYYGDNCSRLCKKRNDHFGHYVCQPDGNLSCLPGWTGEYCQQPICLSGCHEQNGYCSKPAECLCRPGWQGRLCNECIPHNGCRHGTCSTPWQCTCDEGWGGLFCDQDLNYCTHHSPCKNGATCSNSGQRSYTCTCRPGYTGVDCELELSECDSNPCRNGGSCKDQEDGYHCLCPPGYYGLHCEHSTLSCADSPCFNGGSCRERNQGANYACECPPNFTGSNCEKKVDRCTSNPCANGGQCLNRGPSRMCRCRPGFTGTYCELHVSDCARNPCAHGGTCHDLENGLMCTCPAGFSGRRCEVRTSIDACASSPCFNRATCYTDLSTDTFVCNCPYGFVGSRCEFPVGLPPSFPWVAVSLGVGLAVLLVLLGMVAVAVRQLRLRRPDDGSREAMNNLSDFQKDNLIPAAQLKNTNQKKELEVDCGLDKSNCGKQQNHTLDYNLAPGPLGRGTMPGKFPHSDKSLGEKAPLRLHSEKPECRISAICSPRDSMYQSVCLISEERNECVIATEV
# Assay: FMAT competition, purified antibody vs Alexa-647 human Notch1/Fc, 293T cells with human DLL4
# Procedure, shortened: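 293T cells expressing full-length DLL4, mixed with untransfected cells, were preincubated 1 h at 4 °C with serially diluted purified antibody (from 5 μg/ml). Alexa-647 human Notch1/Fc (100 ng/ml stock) was then added for 3 h at 4 °C; bound Notch1/Fc measured by FMAT fluorescence.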
% inhibition at 0.020 nM [%],% inhibition at 0.070 nM [%],% inhibition at 0.21 nM [%],% inhibition at 0.62 nM [%],% inhibition at 1.9 nM [%],% inhibition at 5.6 nM [%],% inhibition at 16.7 nM [%],IC50 [pM],Binder
10,14,33,22,68,125,121,1880,B1
-17,-2,25,9,68,115,124,1730,B2
6,-3,14,27,45,119,111,2050,B3
14,21,23,65,95,127,136,720,B4

# Molecular target: T4, full length human DLL4
# Assay: FACS competition, unlabeled antibody vs competitor Alexa-647 4B4, HEK293 cells with human DLL4
# Protocol: The ability of the purified DLL4 antibodies to inhibit the binding of other DLL4 antibodies to human DLL4 was assessed using a FACS assay. Briefly, antibodies were directly labelled with Alexa-647 using a commercially available labelling kit (e.g. Molecular Probes catalog #A30009, A-20186) as per the manufacturer's instructions. To determine the level of cross-competition, unlabelled anti-DLL4 antibodies (final concentration: 10-0.01 μg/ml) diluted in PBS containing 2% FCS were added to DLL4-expressing HEK 293 cells (as described in example 6; 50000 cells/well diluted in PBS containing 2% FCS) and incubated for 1 h at 4° C. Subsequently, Alexa-647 labeled anti-DLL4 antibodies were added at a final concentration of 0.1 μg/ml and plates were incubated for a further 1 h at 4° C. prior to washing and reading on a FACSCalibur instrument. Data that summarizes the ability of unlabeled antibodies (10, 1, 0.1 μg/ml) to compete with labeled 21H3RK for binding to human DLL4 is included in FIG. 3. Additional data that summarizes the ability of unlabeled antibodies to compete with labeled 21H3RK and 4B4 for binding to human DLL4 is included in Table 22.
row,IC50 [µg/mL],Binder
1,0.856,B1
2,0.274,B2
3,1.15,B3
4,0.348,B4
